Experimental data from patent publication US10941182 (Amgen, dated 2021).
Starred links: 1 amine or outer side, 2 acyl side, 3 side chain; linkers in the order of their positions; H or OH if unused. Non-standard residues stand in square brackets, D forms with d. *: point of attachment. Oic = O=C(O)[C@@H]1C[C@@H]2CCCC[C@@H]2N1; Phe(4-Cl) = N[C@@H](Cc1ccc(Cl)cc1)C(=O)O; γGlu = O=C(O)[C@H](CCC(=O)[*:2])N[*:1]; 2Nal = N[C@@H](Cc1ccc2ccccc2c1)C(=O)O; NMeR = CN[C@@H](CCCNC(=N)N)C(=O)O; Tridecanoyl = CCCCCCCCCCCCC(=O)*; Cha = N[C@@H](CC1CCCCC1)C(=O)O; αMeL = CC(C)C[C@](C)(N)C(=O)O; Tle = CC(C)(C)[C@H](N)C(=O)O; αMeP = C[C@@]1(C(=O)O)CCCN1; β3hP = O=C(O)C[C@@H]1CCCN1; β3hS = N[C@@H](CO)CC(=O)O; Nle = CCCC[C@H](N)C(=O)O; AEEA = NCCOCCOCC(=O)O; Aib = CC(C)(N)C(=O)O; BLeu = β-leucine

T1: human APJ receptor (human, UniProt P35414 1-380)
T1 sequence (looked up): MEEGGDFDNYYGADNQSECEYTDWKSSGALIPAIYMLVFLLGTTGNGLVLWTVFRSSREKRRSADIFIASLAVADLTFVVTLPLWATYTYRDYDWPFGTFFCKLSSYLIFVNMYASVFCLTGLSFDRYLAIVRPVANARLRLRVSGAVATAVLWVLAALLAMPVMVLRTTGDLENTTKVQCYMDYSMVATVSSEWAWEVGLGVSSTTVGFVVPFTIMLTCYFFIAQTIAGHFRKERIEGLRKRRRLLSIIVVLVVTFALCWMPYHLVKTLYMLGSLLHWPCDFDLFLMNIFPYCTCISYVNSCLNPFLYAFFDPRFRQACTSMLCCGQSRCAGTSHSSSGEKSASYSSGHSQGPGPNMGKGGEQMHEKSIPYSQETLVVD

T2: rat APJ receptor (rat, UniProt Q9JHG3 1-377)
T2 sequence (looked up): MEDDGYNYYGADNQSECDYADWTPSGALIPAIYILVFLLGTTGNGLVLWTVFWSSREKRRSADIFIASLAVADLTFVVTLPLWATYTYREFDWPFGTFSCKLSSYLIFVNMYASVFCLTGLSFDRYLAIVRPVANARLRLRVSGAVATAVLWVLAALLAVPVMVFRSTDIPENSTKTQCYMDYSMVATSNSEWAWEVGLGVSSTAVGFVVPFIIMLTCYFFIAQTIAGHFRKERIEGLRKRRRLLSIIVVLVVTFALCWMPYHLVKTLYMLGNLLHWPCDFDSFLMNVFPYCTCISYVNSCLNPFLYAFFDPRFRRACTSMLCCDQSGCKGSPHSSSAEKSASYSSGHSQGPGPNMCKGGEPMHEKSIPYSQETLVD


What was measured:
human APJ receptor = biological target: T1, human APJ receptor; experiment: cell-based or functional assay
rat APJ receptor = biological target: T2, rat APJ receptor; experiment: cell-based or functional assay

| EC50 Human APJ Receptor (GTPγS assay) (human APJ receptor) | EC50 Rat APJ Receptor (GTPγS assay) (rat APJ receptor) | Binder |
| --- | --- | --- |
| 0.196 nM | 0.365 nM | Tridecanoyl-[γGlu][AEEA][AEEA]QRP[NMeR][αMeL]SHKG[Oic][Nle][Phe(4-Cl)]-OH (SMILES CCCCCCCCCCCCC(=O)N[C@@H](CCC(=O)NCCOCCOCC(=O)NCCOCCOCC(=O)N[C@@H](CCC(N)=O)C(=O)N[C@@H](CCCNC(=N)N)C(=O)N1CCC[C@H]1C(=O)N(C)[C@@H](CCCNC(=N)N)C(=O)N[C@@](C)(CC(C)C)C(=O)N[C@@H](CO)C(=O)N[C@@H](Cc1c[nH]cn1)C(=O)N[C@@H](CCCCN)C(=O)NCC(=O)N1[C@H](C(=O)N[C@@H](CCCC)C(=O)N[C@@H](Cc2ccc(Cl)cc2)C(=O)O)C[C@@H]2CCCC[C@@H]21)C(=O)O) [Apelin polypeptide SEQ ID NO: 389] |
| 0.867 nM | 2.83 nM | Tridecanoyl-[γGlu][AEEA][AEEA][dQ]RP[NMeR][αMeL]SHKG[Oic][Nle][β3hP][Phe(4-Cl)]-OH (SMILES CCCCCCCCCCCCC(=O)N[C@@H](CCC(=O)NCCOCCOCC(=O)NCCOCCOCC(=O)N[C@H](CCC(N)=O)C(=O)N[C@@H](CCCNC(=N)N)C(=O)N1CCC[C@H]1C(=O)N(C)[C@@H](CCCNC(=N)N)C(=O)N[C@@](C)(CC(C)C)C(=O)N[C@@H](CO)C(=O)N[C@@H](Cc1c[nH]cn1)C(=O)N[C@@H](CCCCN)C(=O)NCC(=O)N1[C@H](C(=O)N[C@@H](CCCC)C(=O)N2CCC[C@H]2CC(=O)N[C@@H](Cc2ccc(Cl)cc2)C(=O)O)C[C@@H]2CCCC[C@@H]21)C(=O)O) [Apelin polypeptide SEQ ID NO: 554] |
| 0.237 nM | 0.414 nM | Tridecanoyl-[γGlu][AEEA][AEEA]QRP[NMeR][αMeL]SHKG[Oic][Nle][αMeP][Phe(4-Cl)]-OH (SMILES CCCCCCCCCCCCC(=O)N[C@@H](CCC(=O)NCCOCCOCC(=O)NCCOCCOCC(=O)N[C@@H](CCC(N)=O)C(=O)N[C@@H](CCCNC(=N)N)C(=O)N1CCC[C@H]1C(=O)N(C)[C@@H](CCCNC(=N)N)C(=O)N[C@@](C)(CC(C)C)C(=O)N[C@@H](CO)C(=O)N[C@@H](Cc1c[nH]cn1)C(=O)N[C@@H](CCCCN)C(=O)NCC(=O)N1[C@H](C(=O)N[C@@H](CCCC)C(=O)N2CCC[C@@]2(C)C(=O)N[C@@H](Cc2ccc(Cl)cc2)C(=O)O)C[C@@H]2CCCC[C@@H]21)C(=O)O) [Apelin polypeptide SEQ ID NO: 376] |
| 5.6 nM | 10.1 nM | Tridecanoyl-[γGlu][AEEA][AEEA]QRP[NMeR][Cha]SH[AMeK]G[Oic][Nle]P[Phe(4-Cl)]-OH [Apelin polypeptide SEQ ID NO: 444] |
| 0.38 nM | 0.975 nM | Tridecanoyl-[γGlu][AEEA][AEEA][dQ]RP[NMeR][Cha]SAKG[Oic][Nle][Aib][Phe(4-Cl)]-OH (SMILES CCCCCCCCCCCCC(=O)N[C@@H](CCC(=O)NCCOCCOCC(=O)NCCOCCOCC(=O)N[C@H](CCC(N)=O)C(=O)N[C@@H](CCCNC(=N)N)C(=O)N1CCC[C@H]1C(=O)N(C)[C@@H](CCCNC(=N)N)C(=O)N[C@@H](CC1CCCCC1)C(=O)N[C@@H](CO)C(=O)N[C@@H](C)C(=O)N[C@@H](CCCCN)C(=O)NCC(=O)N1[C@H](C(=O)N[C@@H](CCCC)C(=O)NC(C)(C)C(=O)N[C@@H](Cc2ccc(Cl)cc2)C(=O)O)C[C@@H]2CCCC[C@@H]21)C(=O)O) [Apelin polypeptide SEQ ID NO: 530] |
| 1.49 nM | 1.28 nM | Tridecanoyl-[γGlu][AEEA][AEEA]QRP[NMeR][Cha]S[Tle]KG[Oic][Nle]P[Phe(4-Cl)]-OH (SMILES CCCCCCCCCCCCC(=O)N[C@@H](CCC(=O)NCCOCCOCC(=O)NCCOCCOCC(=O)N[C@@H](CCC(N)=O)C(=O)N[C@@H](CCCNC(=N)N)C(=O)N1CCC[C@H]1C(=O)N(C)[C@@H](CCCNC(=N)N)C(=O)N[C@@H](CC1CCCCC1)C(=O)N[C@@H](CO)C(=O)N[C@H](C(=O)N[C@@H](CCCCN)C(=O)NCC(=O)N1[C@H](C(=O)N[C@@H](CCCC)C(=O)N2CCC[C@H]2C(=O)N[C@@H](Cc2ccc(Cl)cc2)C(=O)O)C[C@@H]2CCCC[C@@H]21)C(C)(C)C)C(=O)O) [Apelin polypeptide SEQ ID NO: 438] |
| 0.0204 nM | 0.092 nM | Tridecanoyl-[γGlu][AEEA][AEEA]QRP[NMeR][αMeL]SHKGP[Nle]P[2Nal]-OH (SMILES CCCCCCCCCCCCC(=O)N[C@@H](CCC(=O)NCCOCCOCC(=O)NCCOCCOCC(=O)N[C@@H](CCC(N)=O)C(=O)N[C@@H](CCCNC(=N)N)C(=O)N1CCC[C@H]1C(=O)N(C)[C@@H](CCCNC(=N)N)C(=O)N[C@@](C)(CC(C)C)C(=O)N[C@@H](CO)C(=O)N[C@@H](Cc1c[nH]cn1)C(=O)N[C@@H](CCCCN)C(=O)NCC(=O)N1CCC[C@H]1C(=O)N[C@@H](CCCC)C(=O)N1CCC[C@H]1C(=O)N[C@@H](Cc1ccc2ccccc2c1)C(=O)O)C(=O)O) [Apelin polypeptide SEQ ID NO: 472] |
| 0.4 nM | 0.494 nM | Tridecanoyl-[γGlu][AEEA][AEEA]QRP[Nle]LSHKGP[Nle]P[Phe(4-Cl)]-OH (SMILES CCCCCCCCCCCCC(=O)N[C@@H](CCC(=O)NCCOCCOCC(=O)NCCOCCOCC(=O)N[C@@H](CCC(N)=O)C(=O)N[C@@H](CCCNC(=N)N)C(=O)N1CCC[C@H]1C(=O)N[C@@H](CCCC)C(=O)N[C@@H](CC(C)C)C(=O)N[C@@H](CO)C(=O)N[C@@H](Cc1c[nH]cn1)C(=O)N[C@@H](CCCCN)C(=O)NCC(=O)N1CCC[C@H]1C(=O)N[C@@H](CCCC)C(=O)N1CCC[C@H]1C(=O)N[C@@H](Cc1ccc(Cl)cc1)C(=O)O)C(=O)O) [Apelin polypeptide SEQ ID NO: 428] |
| 0.588 nM | 3.14 nM | Tridecanoyl-[γGlu][AEEA][AEEA][dQ]RP[NMeR][Cha][β3hS]HKG[Oic][Nle][Aib][Phe(4-Cl)]-OH (SMILES CCCCCCCCCCCCC(=O)N[C@@H](CCC(=O)NCCOCCOCC(=O)NCCOCCOCC(=O)N[C@H](CCC(N)=O)C(=O)N[C@@H](CCCNC(=N)N)C(=O)N1CCC[C@H]1C(=O)N(C)[C@@H](CCCNC(=N)N)C(=O)N[C@@H](CC1CCCCC1)C(=O)N[C@@H](CO)CC(=O)N[C@@H](Cc1c[nH]cn1)C(=O)N[C@@H](CCCCN)C(=O)NCC(=O)N1[C@H](C(=O)N[C@@H](CCCC)C(=O)NC(C)(C)C(=O)N[C@@H](Cc2ccc(Cl)cc2)C(=O)O)C[C@@H]2CCCC[C@@H]21)C(=O)O) [Apelin polypeptide SEQ ID NO: 500] |
| 0.565 nM | 1.5 nM | Tridecanoyl-[γGlu][AEEA][AEEA]QRP[NMeR][BLeu]SHKG[Oic][Nle]P[Phe(4-Cl)]-OH [Apelin polypeptide SEQ ID NO: 391] |
| 0.169 nM | 0.197 nM | XXXQRPRLSHKGPXPF ({TDA}[AC4Abu][Aeea][Aeea]QRP[NMeArg][BhLeu]SHKGP[Nle]P[4-Cl-F]{COOH}) [Apelin polypeptide SEQ ID NO: 422] |
| 0.0688 nM | 0.17 nM | Tridecanoyl-[γGlu][AEEA][AEEA]QRP[NMeR][αMeL]SHKG[Oic][Nle]P[Phe(4-Cl)]-OH (SMILES CCCCCCCCCCCCC(=O)N[C@@H](CCC(=O)NCCOCCOCC(=O)NCCOCCOCC(=O)N[C@@H](CCC(N)=O)C(=O)N[C@@H](CCCNC(=N)N)C(=O)N1CCC[C@H]1C(=O)N(C)[C@@H](CCCNC(=N)N)C(=O)N[C@@](C)(CC(C)C)C(=O)N[C@@H](CO)C(=O)N[C@@H](Cc1c[nH]cn1)C(=O)N[C@@H](CCCCN)C(=O)NCC(=O)N1[C@H](C(=O)N[C@@H](CCCC)C(=O)N2CCC[C@H]2C(=O)N[C@@H](Cc2ccc(Cl)cc2)C(=O)O)C[C@@H]2CCCC[C@@H]21)C(=O)O) [Apelin polypeptide SEQ ID NO: 385] |
| 0.0832 nM | 0.298 nM | XXXQRPRLSHKGXXPF ({TDA}[AC4Abu][Aeea][Aeea]QRP[NMeArg][aMeLeu]SHKG[Pip][Nle][aMePro][4-Cl-F]{COOH}) [Apelin polypeptide SEQ ID NO: 605] |
| 0.102 nM | 0.421 nM | XXXQRPRLSHKGXXPF ({TDA}[AC4Abu][Aeea][Aeea]qRP[NMeArg][aMeLeu]SHKG[Pip][Nle][aMePro][4-Cl-F]{COOH}) [Apelin polypeptide SEQ ID NO: 555] |
| 0.0934 nM | 0.261 nM | Tridecanoyl-[γGlu][AEEA][AEEA][dQ]RP[NMeR][αMeL]SHKG[Oic][Nle]P[Phe(4-Cl)]-OH (SMILES CCCCCCCCCCCCC(=O)N[C@@H](CCC(=O)NCCOCCOCC(=O)NCCOCCOCC(=O)N[C@H](CCC(N)=O)C(=O)N[C@@H](CCCNC(=N)N)C(=O)N1CCC[C@H]1C(=O)N(C)[C@@H](CCCNC(=N)N)C(=O)N[C@@](C)(CC(C)C)C(=O)N[C@@H](CO)C(=O)N[C@@H](Cc1c[nH]cn1)C(=O)N[C@@H](CCCCN)C(=O)NCC(=O)N1[C@H](C(=O)N[C@@H](CCCC)C(=O)N2CCC[C@H]2C(=O)N[C@@H](Cc2ccc(Cl)cc2)C(=O)O)C[C@@H]2CCCC[C@@H]21)C(=O)O) [Apelin polypeptide SEQ ID NO: 386] |
